Laboratory results taken from patent publication US20230109780A1 (XIYUAN ANJIAN MEDICINE SHANGHAI, published 2023).
Residue numbers refer to the chain shown, from its start. Like-named read-outs stand apart in the source and are kept apart here.

T1: human NT-4 (human, UniProt P34130 81-210)
T1 construct: Bought protein; also called Neurotrophic factor-4
T1 sequence (looked up): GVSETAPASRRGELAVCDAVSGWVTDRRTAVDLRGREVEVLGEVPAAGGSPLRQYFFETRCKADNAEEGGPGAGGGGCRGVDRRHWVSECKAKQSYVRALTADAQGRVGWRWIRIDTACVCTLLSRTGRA

T2: human NT-3 (human, UniProt P20783 139-257)
T2 construct: Bought protein; also called Neurotrophic factor-3
T2 sequence (looked up): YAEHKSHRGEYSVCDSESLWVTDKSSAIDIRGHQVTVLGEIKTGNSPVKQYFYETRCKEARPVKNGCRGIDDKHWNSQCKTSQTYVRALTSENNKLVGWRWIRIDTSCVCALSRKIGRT

T3: human BDNF (human, UniProt P23560 129-247)
T3 construct: Bought protein; also called Brain-Derived Neurotrophic Factor
T3 sequence (looked up): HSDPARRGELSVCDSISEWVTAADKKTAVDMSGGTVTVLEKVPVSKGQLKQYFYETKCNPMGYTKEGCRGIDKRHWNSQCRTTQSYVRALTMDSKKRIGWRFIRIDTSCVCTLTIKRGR

B1: humanized anti-NGF antibody 138E12-10 (antibody, V domains shown)
VH: QVQLQESGPGLVKPSETLSLTCTVSGFSLTGYGVNWIRQPPGKGLEWIGMIWFEGSTDYQSALKSRVTISKDNSKSQVSLKLSSVTAADTAVYYCAREGYYYGTTYYFDYWGQGTTVTVSS
VL: DIQMTQSPSSLSASVGDRVTITCRASQDISNYLNWYQQKPGKAPKLLIYYTSRLHSGVPSRFSGSGSGTDYTLTISSLQPEDFATYFCQQGNTLPRTFGGGTKVEIK
B2: humanized anti-NGF antibody 138E12-11 (antibody, V domains shown)
VH: B1 VH with I48L, V67L
VL: B1 VL
B3: humanized anti-NGF antibody 43E5-02 (antibody, V domains shown)
VH: QVQLVQSGAEVKKPGASVKVSCKASGYTFTDYEMHWVRQAPGQGLEWIGAIDPETGGTAYNQKFKGRATLTADKSISTAYMELSRLRSDDTAVYYCRRGANLNHYGNDEGSYWGQGTLVTVSS
VL: DVVMTQSPLSLPVTLGQPASISCKSSQSLLHSVGKTYLNWLQQRPGQSPRRLIYLVSKLDSGVPDRFSGSGSGTDFTLKISRVEAEDVGVYFCWQGTHLPQTFGGGTKVEIK
notes: Humanized antibody expressed in CHO cells
B4: humanized anti-NGF antibody 43E5-06 (antibody, V domains shown)
VH: B3 VH with A16S, I76T, R85S, D89E
VL: B3 VL
notes: as for B3
B5: humanized anti-NGF antibody 43E5-01 (antibody, V domains shown)
VH: B3 VH with I48M, A68V, L70M
VL: B3 VL
notes: as for B3
B6: humanized anti-NGF antibody 43E5-05 (antibody, V domains shown)
VH: B3 VH with A16S, I48M, A68V, L70I, I76T, R85S, D89E
VL: B3 VL
notes: as for B3
B7: murine anti-human NGF monoclonal antibody 137H8 (antibody, V domains shown)
VH: QVQLKESGPGLVAPSQSLSITCTVSGFSLTGYAVNWVRQPPGKGLEWLGMIWFDGSTDYNSALKSRLSISKDNSKSQVFLKMNSLQTDDTARYYCARDYYGSSWYFDVWGAGTTVTVSS
VL: DIQMTQTTSSLSASLGDRVTISCRASQDISYYLNWYQQKPDGTVKLLIYYTSRLHSGVPSRFSGSGSGTDYSLTISNLEQEDIATYFCQQGNTLPRTFGGGTKLDIK
notes: Murine monoclonal antibody purified from hybridoma medium by protein G; also called anti-NGF antibody 137H8
B8: human-mouse chimeric antibody 138E12-Chi (antibody, V domains shown)
VH: QVQLKESGPGLVAPSQSLSITCTVSGFSLTGYGVNWVRQPPGKGLEWLGMIWFDGSTDYNSALKSRLSISKDNSKSQVFLKMNSLQTDDTARYYCAREGYYYGTTYYFDYWGQGTTLTVSS
VL: B7 VL with Y31N, D105E
notes: the constant regions are not specified
B9: human-mouse chimeric antibody 43E5-chi (antibody, V domains shown)
VH: QVQLQQSGAELVRPGASVTLSCKASGYTFTDYEMHWVRQTPVHGLEWIGAIDPETGGTAYNQKFKGKATLTADKSSSTAYMELRSLTSEDSAVYYCRRGANLNHYGNDEGSYWGQGTLVTVSA
VL: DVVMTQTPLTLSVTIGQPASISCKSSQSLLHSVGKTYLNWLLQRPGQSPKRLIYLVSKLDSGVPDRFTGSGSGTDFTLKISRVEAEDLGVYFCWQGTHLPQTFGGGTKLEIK
notes: as for B8

Legend:
[1] = biological target: T4, recombinant human NGF protein (human, UniProt P01138 122-241); experiment: ELISA, human NGF coated
T4 construct: Bought protein; also called nerve growth factor; biotin-labeled human NGF
T4 sequence (P01138 122-241 limits assumed): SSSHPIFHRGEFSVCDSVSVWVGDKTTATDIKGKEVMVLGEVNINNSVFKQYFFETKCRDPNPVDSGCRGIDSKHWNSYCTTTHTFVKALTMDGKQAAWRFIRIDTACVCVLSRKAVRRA
Protocol: The affinity and specificity of humanized antibody were investigated by using human NGF as an antigen (Beijing Yiqiao Shenzhou Technology Co., Ltd., 11050-HNAC). NGF was diluted with […] coating solution (PBS), and each well of 96-well microtiter plate was coated with 50 ng, after washing and blocking, and then added with serially diluted antibodies, and incubated at room temperature for 1 hour. After washing three times, HRP-conjugated donkey anti-human IgG antibody (Biolegend) was added and reacted at room temperature for 1 hour. After washing three times, tetramethylbenzidine (TMB, Biolegend) was added for color development. 1M HC1 was […] used to terminate the color development, and the absorbance values were read at 450 nm with a microplate reader.

[2] = biological target: T4, recombinant human NGF protein; experiment: cell-based or functional assay
human NT-4 [3] = biological target: T1, human NT-4; experiment: ELISA, plate coated with human NT-4 (50 ng per well), OD450
human NT-3 [4] = biological target: T2, human NT-3; experiment: ELISA, plate coated with human NT-3 (50 ng per well), OD450
Protocol: Each well of a 96-well microtiter plate was coated with 50 ng of human NGF (Beijing Yiqiao Shenzhou Technology Co., Ltd., 11050-HNAC), human BDNF (Beijing Yiqiao Shenzhou Technology Co., Ltd., 50240-MNAS), human NT-3 (Beijing Yiqiao Shenzhou Technology Co., Ltd., 10286-HNAE), or human NT-4 (Alomone, N-270). The bindings of the murine anti-NGF antibodies to human NGF and three homo-family proteins were detected according to the method described in Example 2.
The binding of the humanized anti-NGF antibody to human NGF and to three homo-family proteins was detected according to the ELISA method described in Example 6A.

human BDNF [5] = biological target: T3, human BDNF; experiment: ELISA, plate coated with human BDNF (50 ng per well), OD450
human BDNF [6] = biological target: T3, human BDNF; experiment: as above; remark: listed apart in the source
human NT-3 [7] = biological target: T2, human NT-3; experiment: ELISA, plate coated with human NT-3 (50 ng per well), OD450; remark: listed apart in the source
human NT-4 [8] = biological target: T1, human NT-4; experiment: ELISA, plate coated with human NT-4 (50 ng per well), OD450; remark: listed apart in the source
[9] = biological target: T4, recombinant human NGF protein; experiment: cell-based or functional assay; remark: listed apart in the source
[10] = biological target: T4, recombinant human NGF protein; experiment: BLI (ForteBio Octet Red96), biotin-NGF on SA sensor, antibody in solution
Excerpt: The affinities of the antibodies were detected with Biomolecular Interaction Detection Platform (ForteBio Octet Red96 (PALL)). Biotin-labeled human NGF was immobilized by using SA (Streptavidin) Biosensor (Fortebio, 18-5021), and then conjugated with gradient concentrations of anti-NGF antibodies.

[11] = biological target: T4, recombinant human NGF protein; experiment: blocking ELISA, TrkA-Fc coated, antibody premixed with biotin-labeled human NGF
Protocol: If the method of coated receptor TrkA is used for detection, 50 ng of NGF receptor TrkA protein (fused to human Fc) was coated in each well of a 96-well microtiter plate, washed three times, and then blocked with 3% BSA for 1 hour. […] 100 μl was taken and mixed with an equal volume of 1 μg/mL biotin-labeled human NGF, incubated at room temperature for 0.5 hours, and then added to an ELISA plate which has been washed with blocking solution. Incubated for 1 hour at room temperature and washed three times. Streptavidin-labeled HRP (Biolegend, 405210) was added, and incubated for 0.5 h and then washed three times. The microtiter plate was added with TMB, and read after the color development was terminated.

[12] = biological target: T4, recombinant human NGF protein; experiment: blocking ELISA, human NGF coated, antibody first, then TrkA-Fc
Protocol: If using the coated ligand NGF method for detection, each well of a 96-well microtiter plate was coated with 50 ng of human NGF and washed three times. […] 100 μL of 1 μg/mL TrkA fused to human Fc was added to each well, incubated for 1 hour at room temperature, and washed three times. HRP-conjugated donkey anti-human IgG antibody (Biolegend, 410902) was added and reacted for 1-hour at room temperature. After washing, add TMB to develop color, and read after the termination of development.

[13] = biological target: T4, recombinant human NGF protein; experiment: cell-based or functional assay; remark: listed apart in the source
[14] = biological target: T4, recombinant human NGF protein; experiment: ELISA, human NGF coated; remark: listed apart in the source
Protocol: The binding capacity of anti-NGF antibodies was investigated by using human NGF as an antigen (Beijing Yiqiao Shenzhou Technology Co., Ltd., 11050-HNAC). Each well of a 96-well microtiter plate was coated with 50 ng of human NGF, after washing and blocking, and then added with serially diluted antibodies, and incubated at room temperature for 1 hour. After washing three times, HRP-conjugated goat anti-mouse antibody (Biolegend, 405306) was added and incubated at room temperature for 1 hour. After washing three times, tetramethylbenzidine (TMB, Biolegend, 421101) was added for color development. 1M HC1 was used to terminate the color development, and the absorbance values were read at 450 nm with a microplate reader.

[15] = biological target: T4, recombinant human NGF protein; experiment: cell-based or functional assay; remark: listed apart in the source

| Binder | EC50 [1] | IC50, inhibition of NGF-induced proliferation of TF-1 cell [2] | binding result (human NT-4 [3]) | binding result (human NT-3 [4]) | binding result (human BDNF [5]) | binding result (human BDNF [6]) | binding result (human NT-3 [7]) | binding result (human NT-4 [8]) | also measured |
| --- | --- | --- | --- | --- | --- | --- | --- | --- | --- |
| B1 | 0.0184 nM | 0.031 nM | no binding (tested: 66.67 nM) | no binding (tested: 66.67 nM) | no binding (tested: 66.67 nM) | – | – | – | – |
| B2 | 0.0324 nM | 0.062 nM | no binding (tested: 66.67 nM) | no binding (tested: 66.67 nM) | no binding (tested: 66.67 nM) | – | – | – | – |
| B3 | 0.222 nM | 0.534 nM | – | – | – | no binding (tested: 66.67 nM) | no binding (tested: 66.67 nM) | no binding (tested: 66.67 nM) | – |
| B4 | 0.192 nM | 0.568 nM | – | – | – | no binding (tested: 66.67 nM) | no binding (tested: 66.67 nM) | no binding (tested: 66.67 nM) | – |
| B5 | 0.229 nM | 0.582 nM | – | – | – | no binding (tested: 66.67 nM) | no binding (tested: 66.67 nM) | no binding (tested: 66.67 nM) | – |
| B6 | 0.214 nM | 0.701 nM | – | – | – | no binding (tested: 66.67 nM) | no binding (tested: 66.67 nM) | no binding (tested: 66.67 nM) | – |
| B7 | – | – | – | – | – | – | – | – | IC50, inhibition of NGF-induced proliferation of TrkA/Ba/F3 cells [9]: 0.083 nM; Kd [10]: 0.381 nM; koff [10]: 4.91e-05 s⁻¹; kon [10]: 129000 M⁻¹ s⁻¹; IC50 [11]: 0.738 nM; IC50 [12]: 0.791 nM; IC50 (row head prints EC50), inhibition of reporter gene expression in TrkA/NFAT-bla/CHO cells [13]: 0.0859 nM; EC50 [14]: 0.112 nM; IC50, inhibition of NGF-induced proliferation of TF-1 cell [15]: 0.123 nM |
| B8 | 0.0454 nM | 0.074 nM | no binding (tested: 66.67 nM) | no binding (tested: 66.67 nM) | no binding (tested: 66.67 nM) | – | – | – | – |
| B9 | 0.104 nM | 0.255 nM | – | – | – | no binding (tested: 66.67 nM) | no binding (tested: 66.67 nM) | no binding (tested: 66.67 nM) | – |
